The values below come from paper PMC6532589.

The target in this series is human alpha-thrombin (human, UniProt P00734;P00734 328-363;364-622). As to the kind of experiment: centrifugation separation, free thrombin by fibrinogen-Au NP assay, Scatchard; graphene oxide carrier; 100 uM BSA; PBS (1X: 137 mM NaCl, 2.7 mM KCl, 10 mM Na2HPO4, 1.8 mM KH2PO4, pH 7.4) with 100 uM BSA, 30 min; 100 pM Supra-TBA15/29, thrombin 0-1 nM; temperature not stated.

The Kd is the equilibrium constant for the complex coming apart.

B1: Supra-TBA15/29-GO (sTBA15 + sTBA29 network on graphene oxide) (mixed)
DNA 1: AAAAAAAAAAAAAAAAAAAACGACCTGTACGACTCTTTTTTCAGGGTTGGTGTGGTTGGCTGATTTTTATCTTCACGAGCACT
DNA 2: GAGTCGTACAGGTCGTTTTTAGTCCGTGGTAGGGCAGGTTGGGGTGACTTTTTTAGTGCTCGTGAAGATAAAAAAAAAAAAAAAAAAAA
modifications: adsorbed on graphene oxide through A20 tails (40 ug/mL GO, 60 C)
B1 returned a Kd of 0.019 nM.
